Where “and” joins values, the source holds several entries; their conditions need not be identical. Equal values may be shown once. A value given as a limit tells only on which side of the number the result lay.

The text below walks through data of patent publication US20180079819A1 (IMMUNOGEN, published 2018).

In assay [1] the target is T1, human CD123 (IL-3Rα, interleukin-3 receptor alpha chain) (human, UniProt P26951 19-378).
T1 construct: CD123 on human cell lines (TF-1, HNT-34, MOLM-13 and other AML, B-ALL, CML and NHL lines) or on 300-19 cells stably expressing human CD123; also called CD123 antigen; human CD123 antigen
Kind of assay: flow cytometry on HNT-34 cells; apparent Kd. Background: In flow cytometry, cells or beads pass a laser one at a time.

In assay [2] the target is T1, human CD123 (IL-3Rα, interleukin-3 …). Put plainly: cell-based or functional assay.
For assay [3] the target is unchanged. Kind of assay: flow cytometry on HNT-34 cells, against muCD123-6 of Example 5.
Assay [4] shares this target. Kind of assay: flow cytometry on MOLM-13 cells; apparent Kd; MOLM-13 cells.
Assay [5] has the same target. Kind of assay: flow cytometry on HNT-34 cells, apparent Kd against that of 7G3.
Assay [6] has the same target. Put plainly: flow cytometry on HNT-34 cells, PE-conjugated goat anti-human secondary.
Assay [7] has as its target T2, IL3Rα (101-306) chimeric receptor protein: GMRα residues 1-114 fused to IL3Rα residues 101-306, His-tagged (human, UniProt P15509 23-114).
T2 construct: range 1-114; also called CRM domain of IL3Rα construct
T2 sequence: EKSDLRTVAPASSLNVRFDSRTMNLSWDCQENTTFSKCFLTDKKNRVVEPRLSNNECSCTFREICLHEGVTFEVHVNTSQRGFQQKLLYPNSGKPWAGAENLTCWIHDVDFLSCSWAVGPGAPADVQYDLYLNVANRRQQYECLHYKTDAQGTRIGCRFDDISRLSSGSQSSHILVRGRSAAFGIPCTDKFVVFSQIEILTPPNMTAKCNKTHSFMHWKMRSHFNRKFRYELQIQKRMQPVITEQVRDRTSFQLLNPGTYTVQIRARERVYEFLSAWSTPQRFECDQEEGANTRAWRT
Put plainly: ELISA on plate-coated His-tagged protein, A450. How it is done: (§1) The chimeric and humanized anti-IL3Rα antibodies were tested in enzyme-linked immunosorbent assay (ELISA) format for binding to the IL-3Rαproteins described above. Briefly, each His-tagged IL-3Rαprotein purified by Ni Sepharose excel chromatography was diluted to 1 ng/mL in 50 mM sodium bicarbonate buffer pH 9.6, and 100 μL was added to each well. After a 16 hr incubation at 4° C., the plates were washed with Tris-buffered saline with 0.1% Tween-20 (TBST), then blocked with 200 μL blocking buffer (TBS with 1% BSA). Next, 100 μL of primary antibody, serially diluted in blocking buffer, was added in duplicate to the ELISA wells and incubated at room temperature for 1 hr. The plates were then washed 3 times with TBST before adding 100 μL of anti-human IgG (H+L)-HRP (Jackson ImmunoResearch) to each well. Once again the plates were incubated for 1 hr at room temperature followed by three washes with TBST. Finally, 100 μL of TMB one component HRP microwell substrate (Surmodics) was added to each well and incubated for 5 min. The reaction was stopped by adding 100 μL stopping solution (Surmodics) and absorbances were read at 450 nm.
(§2) Binding of the CD123 antibodies to the chimeric IL-3Rαproteins was evaluated in comparison to the wild type IL-3Rα.

Assay [8] deals with T3, extracellular domain of CD123/IL-3Rα (residues 1-306), histidine tagged (human, UniProt P26951 19-306).
T3 construct: Expressed in HEK 293T cells, purified on Ni Sepharose, coated on ELISA plates; also called wild type IL-3Rα; wild-type IL-3Rα construct
T3 sequence: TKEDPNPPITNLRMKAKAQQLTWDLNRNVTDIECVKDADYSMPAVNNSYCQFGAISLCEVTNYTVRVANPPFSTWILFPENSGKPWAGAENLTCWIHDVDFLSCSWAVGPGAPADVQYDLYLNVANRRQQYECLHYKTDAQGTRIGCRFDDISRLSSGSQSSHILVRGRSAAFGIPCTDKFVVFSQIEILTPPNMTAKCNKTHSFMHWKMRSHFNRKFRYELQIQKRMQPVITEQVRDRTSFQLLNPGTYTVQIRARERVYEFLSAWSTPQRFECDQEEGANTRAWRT
Put plainly: ELISA on plate-coated His-tagged protein, A450. How it is done: as §1, §2
In general terms: An ELISA detects its analyte on a solid surface through an enzyme-linked reagent.

Assay [9] concerns the target T1, human CD123 (IL-3Rα, interleukin-3 …). Put plainly: flow cytometry on TF-1 cells; EC50 of the binding curve taken as apparent Kd.
Assay [10] has the same target. Put plainly: flow cytometry on HNT-34 cells; EC50 of the binding curve taken as apparent Kd.
Assay [11] has the same target. Put plainly: flow cytometry on HNT-34 cells, against muCD123-14 of Example 5.
Assay [12] addresses T4, IL3Rα (1-100) chimeric receptor protein: IL3Rα residues 1-100 fused to GMRα residues 115-325, His-tagged (human, UniProt P15509 115-325).
T4 construct: range 115-325; also called IL-3Rα N-terminal domain construct
T4 sequence: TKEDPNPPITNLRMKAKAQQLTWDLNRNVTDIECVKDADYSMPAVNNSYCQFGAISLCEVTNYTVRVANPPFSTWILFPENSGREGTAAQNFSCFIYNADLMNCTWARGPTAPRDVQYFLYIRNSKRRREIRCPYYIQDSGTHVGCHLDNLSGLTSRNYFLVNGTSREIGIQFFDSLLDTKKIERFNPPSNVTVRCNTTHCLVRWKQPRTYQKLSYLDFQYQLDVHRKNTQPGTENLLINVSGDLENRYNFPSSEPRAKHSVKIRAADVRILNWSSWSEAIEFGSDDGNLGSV
Kind of assay: ELISA on plate-coated His-tagged protein, A450. How it is done: as §1, §2

Assay [13] has as its target T1, human CD123 (IL-3Rα, interleukin-3 …). Put plainly: flow cytometry on HNT-34 cells, against muCD123-3 of Example 5.

B1: chCD123-6 (antibody, human IgG1, V domains shown)
VH: EFQLQQSGPELVKPGASVKMSCKASGYIFTSSIMHWMKQKPGQGLEWIGYIKPYNDGTKYNEKFKGKATLTSDKSSSTANMELNSLTSEDSAVYYCAREGGNDYYDTMDYWGQGTSVTVSS
VL: DIKMTQSPSSMYASLGERVTITCKASQDINSYLSWFQQKPGKSPKTLIYRVNRLVDGVPSRFSGSGSGQDYSLTISSLEYEDMGIYYCLQYDAFPYTFGGGTKLEIKR
notes: also called chimeric CD123-6 antibody
Regarding B1, the Kd in assay [1] was 40 pM and ~60 pM. Moreover, in assay [2], the “IC50, inhibition of IL3-dependent proliferation of TF-1 cells” value was determined as 30 pM and the “IC50, inhibition of IL-3 dependent proliferation of TF-1 cells” value stood at 20 pM. The “fold difference of Kd from the murine counterpart” value (from here on “fold difference of Kd”) in assay [3] is at most 2.5 fold. Also, in assay [4], the Kd was determined as 80 pM.

B2: huCD123-6Gv4.7S3 (antibody, human IgG1, kappa)
heavy: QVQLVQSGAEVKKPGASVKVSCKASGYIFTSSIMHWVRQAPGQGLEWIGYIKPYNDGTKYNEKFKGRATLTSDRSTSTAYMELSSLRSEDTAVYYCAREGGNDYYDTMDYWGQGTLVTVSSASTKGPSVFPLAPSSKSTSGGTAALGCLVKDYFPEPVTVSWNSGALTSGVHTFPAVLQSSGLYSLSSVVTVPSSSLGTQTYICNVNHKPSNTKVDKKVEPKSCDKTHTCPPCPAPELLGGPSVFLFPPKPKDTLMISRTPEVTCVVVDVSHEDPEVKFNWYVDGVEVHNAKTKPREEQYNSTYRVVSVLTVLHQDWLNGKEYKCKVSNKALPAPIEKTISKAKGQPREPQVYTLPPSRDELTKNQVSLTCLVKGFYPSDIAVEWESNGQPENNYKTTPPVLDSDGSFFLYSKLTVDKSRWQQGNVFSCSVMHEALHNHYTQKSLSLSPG
light: SIQMTQSPSSLSASVGDRVTITCRASQDINSYLSWFQQKPGKAPKTLIYRVNRLVDGVPSRFSGSGSGNDYTLTISSLQPEDFATYYCLQYDAFPYTFGQGTKVEIKRTVAAPSVFIFPPSDEQLKSGTASVVCLLNNFYPREAKVQWKVDNALQSGNSQESVTEQDSKDSTYSLSSTLTLSKADYEKHKVYACEVTHQGLSSPVTKSFNRGEC
notes: also called huCD123-6Gv4.7 clone (S3); CD123-6G4.7S3
On to B2, for which the Kd in [1] is around 60 pM. The “IC50, inhibition of IL-3 dependent proliferation of TF-1 cells” value in assay [2] was 20 pM. Moreover, the “fold higher affinity than the 7G3 antibody” value in [5] was at least 30 fold. In assay [6], the “EC50 (read off the curve)” value is around 50 pM.

B3: huCD123-6Gv4.7 (antibody, human IgG1, kappa)
heavy: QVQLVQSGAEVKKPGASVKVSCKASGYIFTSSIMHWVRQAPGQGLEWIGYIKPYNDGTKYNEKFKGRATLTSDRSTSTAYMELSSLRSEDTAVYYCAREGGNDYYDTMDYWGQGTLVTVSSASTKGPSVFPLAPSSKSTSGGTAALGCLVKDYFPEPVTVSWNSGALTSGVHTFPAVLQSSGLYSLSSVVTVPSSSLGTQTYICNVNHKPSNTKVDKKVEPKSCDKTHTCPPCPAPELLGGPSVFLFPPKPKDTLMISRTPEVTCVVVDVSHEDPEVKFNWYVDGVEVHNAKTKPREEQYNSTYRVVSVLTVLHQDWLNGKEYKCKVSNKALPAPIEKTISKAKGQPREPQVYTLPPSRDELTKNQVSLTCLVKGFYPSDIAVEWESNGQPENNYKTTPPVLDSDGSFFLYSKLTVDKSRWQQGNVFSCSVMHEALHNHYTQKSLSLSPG
light: DIQMTQSPSSLSASVGDRVTITCRASQDINSYLSWFQQKPGKAPKTLIYRVNRLVDGVPSRFSGSGSGNDYTLTISSLQPEDFATYYCLQYDAFPYTFGQGTKVEIKRTVAAPSVFIFPPSDEQLKSGTASVVCLLNNFYPREAKVQWKVDNALQSGNSQESVTEQDSKDSTYSLSSTLTLSKADYEKHKVYACEVTHQGLSSPVTKSFNRGEC
notes: CDR-grafted humanized antibody; also called version 4.7 (VL Gv4 and VH Gv7)
In the case of B3, the values for the EC50 in assay [7] and in assay [8] were 145 pM and 106 pM, respectively.

B4: huCD123-6Gv4.7S2 (antibody, human IgG1, kappa)
heavy: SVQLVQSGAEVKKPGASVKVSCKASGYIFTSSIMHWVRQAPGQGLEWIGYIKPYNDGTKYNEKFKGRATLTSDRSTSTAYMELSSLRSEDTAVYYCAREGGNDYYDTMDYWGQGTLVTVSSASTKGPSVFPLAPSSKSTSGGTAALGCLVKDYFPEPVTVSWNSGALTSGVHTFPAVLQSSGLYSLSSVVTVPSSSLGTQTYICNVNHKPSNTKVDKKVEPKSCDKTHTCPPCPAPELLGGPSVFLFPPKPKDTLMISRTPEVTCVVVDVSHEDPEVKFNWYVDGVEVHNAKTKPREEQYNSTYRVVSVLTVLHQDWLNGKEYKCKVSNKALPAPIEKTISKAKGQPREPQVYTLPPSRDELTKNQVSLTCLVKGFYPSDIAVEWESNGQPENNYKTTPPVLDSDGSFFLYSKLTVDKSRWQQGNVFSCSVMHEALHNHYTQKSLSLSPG
light: DIQMTQSPSSLSASVGDRVTITCRASQDINSYLSWFQQKPGKAPKTLIYRVNRLVDGVPSRFSGSGSGNDYTLTISSLQPEDFATYYCLQYDAFPYTFGQGTKVEIKRTVAAPSVFIFPPSDEQLKSGTASVVCLLNNFYPREAKVQWKVDNALQSGNSQESVTEQDSKDSTYSLSSTLTLSKADYEKHKVYACEVTHQGLSSPVTKSFNRGEC
notes: CDR-grafted humanized antibody with an engineered N-terminal Ser on the heavy chain; also called huCD123-6Gv4.7 clone (S2)
For B4, the Kd in assay [1] was around 60 pM. In addition, the “IC50, inhibition of IL-3 dependent proliferation of TF-1 cells” value in assay [2] came out at 20 pM. In addition, the “fold higher affinity than the 7G3 antibody” value in [5] is at least 30 fold.

B5: 7G3 (antibody, V domains shown)
VH: EVQLQQSGPELVKPGASVKMSCKASGYTFTDYYMKWVKQSHGKSLEWIGDIIPSNGATFYNQKFKGKATLTVDRSSSTAYMHLNSLTSEDSAVYYCTRSHLLRASWFAYWGQGTLVTVSA
VL: DFVMTQSPSSLTVTAGEKVTMSCKSSQSLLNSGNQKNYLTWYLQKPGQPPKLLIYWASTRESGVPDRFTGSGSGTDFTLTISSVQAEDLAVYYCQNDYSYPYTFGGGTKLEIKR
With B5, the results for the Kd in [1], in [9] and in assay [10] were around 2000 pM, 900 pM and 2000 pM, respectively. Further, the “IC50, inhibition of IL-3 dependent proliferation of TF-1 cells” value in [2] was 330 pM and 200 pM.

B6: chCD123-14 (antibody, V domains shown)
VH: EVKLVESGGDLVKPGGSLKLSCAASGFTFSNYAMSWVRQNSEKRLEWVATINSGGSFTYYPDSVKGRFTISRDNAKDSLYLQMSSLNSEDTAMYYCARQSEAYYGYDKRTWFAYWGQGTLVTVSS
VL: DILLTQSPAILSVSPGTRVSFSCRASQSVGTSIHWYQQRPNGFPRLLIKYASESISGIPSRFSGSGSGTDFTLNINSVESEDIADYYCQQSKSWPLTFGAGTKLELKR
notes: also called chimeric CD123-14 antibody
Take B6: the Kd in assay [1] was 200 pM. Moreover, the “IC50, inhibition of IL3-dependent proliferation of TF-1 cells” value in [2] was 50 pM. The “fold difference of Kd” value in assay [11] is at most 2.5 fold. The EC50 in [12] was 47.9 pM; in [8] it was 65.5 pM.

B7: chCD123-3 (antibody, human IgG1, V domains shown)
VH: EFQLQQSGPEVVKPGASVKMSCKASGYTFTSYVMHWMKQKPGQGLEWIGYIKPYKDGTKYNEKFKGKATLISDKPSSTAYMELSSLTSEDSAVYYCAREGENGYYDAMDYWGQGTSVTVSS
VL: DIQMTQSPSSLSASLGGKVTITCKASQDINKYIAWYQHKPGKGPRLLIHYTSTLQPGIPSRFSGSGSGRDYSFSISNLEPEDIATYYCLQYDNLLYTFGGGTKLELKR
notes: human IgG1 and Kappa are spelled out for chCD123-6 and the same vectors and constant regions were used; also called chimeric CD123-3 antibody
In the case of B7, the Kd in [1] stood at 100 pM; in [4], 200 pM. In addition, in assay [2], the “IC50, inhibition of IL3-dependent proliferation of TF-1 cells” value was 100 pM. Moreover, the “fold difference of Kd” value in assay [13] is at most 2.5 fold. The figures for the EC50 in assay [7] and in [8] were 852 pM and 274 pM, respectively.

The EC50 (read off the curve) is the concentration at which the effect is half-maximal. The term EC50 denotes the concentration that produces a half-maximal response. A high value points to lower potency in that assay.
